One block for each substance: values may come before it.
Legend:
[1] = target: human CD33-his protein (human) (UniProt P20138); experiment: competition ELISA, coated human CD33-his, vs Biotin-C33B904 at EC80; antibody 1.95 nM
[2] = target: human CD33-his protein (human) (UniProt P20138); experiment: competition ELISA, coated human CD33-his, vs Biotin-C33B904 at EC80; antibody 15.63 nM
[3] = target: human CD33-his protein (human) (UniProt P20138); experiment: competition ELISA, coated human CD33-his, vs Biotin-C33B904 at EC80; antibody 500 nM
[4] = target: human CD33-his protein (human) (UniProt P20138); experiment: competition ELISA, coated human CD33-his, vs Biotin-C33B904 at EC80; antibody 0.98 nM
[5] = target: human CD33-his protein (human) (UniProt P20138); experiment: as above; remark: listed apart in the source
[6] = target: human CD33-his protein (human) (UniProt P20138); experiment: competition ELISA, coated human CD33-his, vs Biotin-C33B904 at EC80; antibody 0.49 nM
[7] = target: human CD33-his protein (human) (UniProt P20138); experiment: as above; remark: listed apart in the source
[8] = target: human CD33-his protein (human) (UniProt P20138); experiment: competition ELISA, coated human CD33-his, vs Biotin-C33B904 at EC80; antibody 31.25 nM
[9] = target: human CD33-his protein (human) (UniProt P20138); experiment: as above; remark: listed apart in the source
[10] = target: human CD33-his protein (human) (UniProt P20138); experiment: competition ELISA, coated human CD33-his, vs Biotin-C33B904 at EC80; antibody 0 nM (no competitor)
[11] = target: human CD33-his protein (human) (UniProt P20138); experiment: competition ELISA, coated human CD33-his, vs Biotin-C33B904 at EC80; antibody 125.00 nM
[12] = target: human CD33-his protein (human) (UniProt P20138); experiment: competition ELISA, coated human CD33-his, vs Biotin-C33B904 at EC80; antibody 7.81 nM
[13] = target: human CD33-his protein (human) (UniProt P20138); experiment: competition ELISA, coated human CD33-his, vs Biotin-C33B904 at EC80; antibody 62.50 nM
[14] = target: human CD33-his protein (human) (UniProt P20138); experiment: as above; remark: listed apart in the source
[15] = target: human CD33-his protein (human) (UniProt P20138); experiment: competition ELISA, coated human CD33-his, vs Biotin-C33B904 at EC80; antibody 0 nM (no competitor); remark: listed apart in the source
[16] = target: human CD33-his protein (human) (UniProt P20138); experiment: competition ELISA, coated human CD33-his, vs Biotin-C33B904 at EC80; antibody 3.91 nM
[17] = target: human CD33-his protein (human) (UniProt P20138); experiment: competition ELISA, coated human CD33-his, vs Biotin-C33B904 at EC80; antibody 250.00 nM
[18] = target: human CD33-his protein (human) (UniProt P20138); experiment: competition ELISA, coated human CD33-his, vs Biotin-C33B904 at EC80; antibody 3.91 nM; remark: listed apart in the source
[19] = target: human CD33-his protein (human) (UniProt P20138); experiment: competition ELISA, coated human CD33-his, vs Biotin-C33B904 at EC80; antibody 7.81 nM; remark: listed apart in the source
[20] = target: human CD33-his protein (human) (UniProt P20138); experiment: competition ELISA, coated human CD33-his, vs Biotin-C33B904 at EC80; antibody 15.63 nM; remark: listed apart in the source
[21] = target: human CD33-his protein (human) (UniProt P20138); experiment: competition ELISA, coated human CD33-his, vs Biotin-C33B904 at EC80; antibody 500 nM; remark: listed apart in the source
[22] = target: human CD33-his protein (human) (UniProt P20138); experiment: competition ELISA, coated human CD33-his, vs Biotin-C33B904 at EC80; antibody 1.95 nM; remark: listed apart in the source
[23] = target: human CD33-his protein (human) (UniProt P20138); experiment: competition ELISA, coated human CD33-his, vs Biotin-C33B904 at EC80; antibody 250.00 nM; remark: listed apart in the source
[24] = target: human CD33-his protein (human) (UniProt P20138); experiment: competition ELISA, coated human CD33-his, vs Biotin-C33B904 at EC80; antibody 125.00 nM; remark: listed apart in the source
[25] = target: human CD33 on CHO-K1 cells (CHO-K1-human CD33) (human) (UniProt P20138); experiment: FACS, clone CHO-K1-human CD33 C8
[26] = target: human CD33 on CHO-K1 cells (CHO-K1-human CD33) (human) (UniProt P20138); experiment: FACS, clone CHO-K1-human CD33 B8
[27] = target: human CD33 on CHO-K1 cells (CHO-K1-human CD33) (human) (UniProt P20138); experiment: FACS, clone CHO-K1-human CD33 B11
[28] = target: human CD33 on U937 cells (endogenous) (human) (UniProt P20138); experiment: FACS, U937 cells
Sequence of human CD33 on U937 cells (endogenous) (human) (P20138 18-364): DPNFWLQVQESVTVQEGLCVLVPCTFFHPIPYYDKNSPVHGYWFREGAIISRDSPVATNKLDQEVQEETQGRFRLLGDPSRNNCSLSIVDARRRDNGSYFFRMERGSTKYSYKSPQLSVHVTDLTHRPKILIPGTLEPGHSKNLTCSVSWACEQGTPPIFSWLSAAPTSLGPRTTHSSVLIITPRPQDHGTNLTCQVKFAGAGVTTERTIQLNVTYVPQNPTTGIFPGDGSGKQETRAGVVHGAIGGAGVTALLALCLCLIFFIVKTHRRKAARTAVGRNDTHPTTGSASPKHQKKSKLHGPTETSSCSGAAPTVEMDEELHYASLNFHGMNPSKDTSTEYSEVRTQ

Sequence of human CD33-his protein (human) (P20138 18-259 limits assumed): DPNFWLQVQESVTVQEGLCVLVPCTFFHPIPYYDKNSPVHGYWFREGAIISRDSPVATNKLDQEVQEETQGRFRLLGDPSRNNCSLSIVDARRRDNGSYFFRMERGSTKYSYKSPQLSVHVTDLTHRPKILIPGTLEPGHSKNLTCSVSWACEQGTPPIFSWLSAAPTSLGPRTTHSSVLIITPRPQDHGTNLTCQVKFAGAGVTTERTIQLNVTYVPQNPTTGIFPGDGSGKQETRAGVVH
Sequence of human CD33 on CHO-K1 cells (CHO-K1-human CD33) (human) (P20138 18-364): as the sequence (P20138 18-364) above

OD450 (Biotin-C33B904 signal) [1]: 2.21 | OD450 (Biotin-C33B904 signal) [2]: 2.35 | OD450 (Biotin-C33B904 signal) [3]: 2.34 | OD450 (Biotin-C33B904 signal) [4]: 2.27 | OD450 (Biotin-C33B904 signal) [5]: 2.08 | OD450 (Biotin-C33B904 signal) [6]: 2.13 | OD450 (Biotin-C33B904 signal) [7]: 2.22 | OD450 (Biotin-C33B904 signal) [8]: 2.38 | OD450 (Biotin-C33B904 signal) [9]: 2.21 | OD450 (Biotin-C33B904 signal) [10]: 2.26 | OD450 (Biotin-C33B904 signal) [11]: 2.34 | OD450 (Biotin-C33B904 signal) [12]: 2.17 | OD450 (Biotin-C33B904 signal) [13]: 2.35 | OD450 (Biotin-C33B904 signal) [14]: 2.17 | OD450 (Biotin-C33B904 signal) [15]: 2.24 | OD450 (Biotin-C33B904 signal) [16]: 2.19 | OD450 (Biotin-C33B904 signal) [17]: 2.35 | OD450 (Biotin-C33B904 signal) [18]: 2.3 | OD450 (Biotin-C33B904 signal) [19]: 2.33 | OD450 (Biotin-C33B904 signal) [20]: 2.3 | OD450 (Biotin-C33B904 signal) [21]: 2.46 | OD450 (Biotin-C33B904 signal) [22]: 2.3 | OD450 (Biotin-C33B904 signal) [23]: 2.16 | OD450 (Biotin-C33B904 signal) [24]: 2.17
Substance: hIgG1 (anti-hel-hIgG1 antibody against hen egg lysozyme)

Mean fluorescence intensity of cells [25]: 30.9 MFI | Mean fluorescence intensity of cells [26]: 30.9 MFI | Mean fluorescence intensity of cells [27]: 30.9 MFI | Mean fluorescence intensity of cells [28]: 114 MFI
Substance: IgG subtype control (antibody)

From patent US20240124575A1
